Data: patent US9096835B2, “DNA polymerase” (Medical Research Council, priority 2003, dated 2015)
Entries after “also recorded” stand apart in the source; their conditions may differ. Values belong to the molecule of their own block, whether it stands above or below them.

Key:
[1] = test system: primer-template duplex with matched or mismatched 3′ terminus; experiment: Steady-state extension kinetics, gel-based assay; format: biochemical; conditions: incorporated base is dCTP
Method: Kinetic parameters were determined using a gel-based assay essentially as described (16). Primers 15, 16, 17 (3′ base=G, C, A respectively) were ^32P-labeled and annealed to one of template strands 18, 19, 20 (template base=C, G, A respectively) or 21 (template base C different context). Duplex substrates were used at 50 nM final concentration in 1× Taq buffer with various concentrations of enzyme and dNTP. Reactions were carried out at 60° C. for times whereby <20% of primer-template was utilized at the highest concentration of dNTP.
Extension and incorporation kinetics of M1 and M4 for a selection of mismatches were measured using a gel-based steady-state kinetic assay (Goodman) (Tables 1 & 2). M1 and M4 respectively extend a C•C mispair 390 and 75-fold more efficiently than wtTaq. […] The gain in extension efficiency derives predominantly from increased relative Vmax values for the mutant polymerases, while Km for nucleotide substrates remains largely unchanged. For most DNA polymerases the relative efficiency of extending a given mispair (f0ext) is similar to the relative efficiency of forming it (finc) (Goodman 1993, Goodman 1990, Washington 2001). Indeed, M1 and M4 respectively incorporate dCTP opposite template base C 206- and 29-fold more efficiently than wtTaq (Table 2).

[2] = test system: template containing an abasic site; experiment: Translesion replication assay (primer extension), abasic site; format: biochemical; conditions: gel-extension assay, 60° C.
Method: (§1) Template primers 22 (undamaged) or 23 (containing a synthetic abasic site) were synthesized by Lofstrand Laboratories (Gaithersburg, Md.). Template primer 24 (containing a single cis-syn thymine dimer), was synthesized as described (34). Primer 25 was ^32P-labeled and annealed to one of the three templates 22, 23, 24 (at a primer template ratio of molar 1:1.5) and extended in 40 mM Tris.HCl at pH 8.0, 5 mM MgCl2, 100 μM of each dNTP, 10 mM DTT, 250 μg/ml BSA, 2.5% glycerol, 10 nM primer-template DNA and 0.1 Unit of polymerase at 60° C. for various times.
(§2) Primer extension assays were essentially as described in (Ghadessy et al., 2004). Briefly, undamaged oligonucleotides and a 51mer containing a synthetic abasic site were synthesized by Lofstrand Laboratories (Gaithersburg, Md.) using standard techniques and were gel purified prior to use. A 20mer primer (LES—20 P) with the sequence 5′-[…]-3′ (SEQ ID NO: 99) was 5′-labeled with [^32P]ATP (5000 Ci/mmole; 1 Ci=37 GBq) (Pharmacia) using T4 polynucleotide kinase (Invitrogen, Carlsbad Calif.). Radiolabeled primer-template DNAs were prepared by annealing the 5′[^32P] labeled 20mer primer to one of the two following 51mer templates (at a primer template ratio of molar 1:1.5). 1) undamaged DNA (UNDT51T); 5′-AGCTACCATGCCTGCACGAATTCGGCATCCGTCGCGACCACGGTCGCAGCG-3′ (SEQ ID NO: 100); 2) an oligo (LABA51T) containing a synthetic abasic site (indicated as an X in bold font); 5′-AGCTACCATGCCTGCACGACA XCG GCATCCGTCGCGACCACGGTCGCAGCG-3′ (SEQ ID NO: 101). Standard replication reactions of 10 contained 40 mM Tris.HCl at pH 8.0, 5 mM MgCl2, 100 μM of each ultrapure dNTP (Amersham Pharmacia Biotech, NJ), 10 mM DTT, 250 μg/ml BSA, 2.5% glycerol, 10 nM 5′[32P] primer-template DNA and 0.1 Unit of polymerase. After incubation at 60° C. for various times reactions were terminated by the addition of 10 μl of 95% formamide/10 mM EDTA and the samples heated to 100° C. for 5 min. Reaction mixtures (5 μl) were subjected to 20% polyacrylamide/7 M Urea gel electrophoresis and replication products visualized by PhosphorImager analysis.

[3] = test system: template containing a cis-syn cyclobutane thymine-thymine dimer (CPD); experiment: Translesion replication assay (primer extension), CPD; format: biochemical; conditions: gel-extension assay, 60° C.
Method: as §1, §2

[4] = PCR with all four dNTPs replaced by αS dNTPs; format: biochemical; conditions: 50 cycle PCR, 50 μM αS dNTPs
Method: A PCR assay was used to screen and rank clones. Briefly, clones were normalized for activity in PCR with matched primers 3, 4 and activity with mismatched primers 1 and 2 (1 μM each) determined at minimal cycle number (15-25 cycles). Extension capability for different mismatches was determined by the same assay using mismatch primers 2 (C•C mismatch), 5 (A•A mismatch), 6 (G•G mismatch), 7 (G•A mismatch) with matched primer 3 or primer 1 (A•G mismatch) with matched primer 4. Incorporation of unnatural substrates in 50 cycle PCR was carried out using standard conditions and 50 μM […] dNTPs (Promega) or 50 μM FITC-12-dATP (Perkin-Elmer), Rhodamine-5-dUTP (Perkin-Elmer) or Biotin-16-dUTP (Roche) with equivalent amounts of the other 3 dNTPs (all 50 μM). Long PCR was carried out using a two-step cycling protocol as described (22) 94° C. for 2 minutes, followed by 20 cycles of (94° C. 15 sec, 68° C. 30 min) using 5 ng of phage λ DNA (New England Biolabs) template and either primers 9, 10, 11 with primer 12 or primer 13 with primers 10, 14.

[5] = biological target: matched and mismatched primer-template duplex; experiment: Template affinity equilibrium binding assay; conditions: not shown
Method: An equilibrium binding assay (12) was used to determine relative affinity of polymerases for the mismatched primer-templates used in the kinetics assays. Polymerases were preincubated at 60° C. in 1× Taq buffer with 50 nM ^32P-labeled matched primer-template and 50 nM unlabeled mismatched competitor primer-templates. Reactions were initiated by simultaneous addition of dCTP (200 μM) and trap DNA (XbaI/SalI-restricted sheared salmon sperm DNA, 4.5 mg/ml).

[6] = 3′-terminal base pair C · G (template base: 3′ primer base), matched

- Ratio of fext, fext (mutant polymerase)/fext (wtTaq) ([1]; 3′-terminal base pair A · A): 1.0
- Ratio of fext, fext (mutant polymerase)/fext (wtTaq) ([1]; 3′-terminal base pair A · G): 1.0
- Ratio of fext, fext (mutant polymerase)/fext (wtTaq) ([1]; 3′-terminal base pair C · C): 1.0
- Ratio of fext, fext (mutant polymerase)/fext (wtTaq) ([1]; 3′-terminal base pair G · A): 1.0
- Ratio of fext, fext (mutant polymerase)/fext (wtTaq) ([1]; 3′-terminal base pair G · G): 1.0
- dissociation constants for matched and mismatched primer-template duplex [5]: indistinguishable
Molecule: wtTaq: Thermus aquaticus (Taq) wild type DNA polymerase [reference compound]
- Vmax ([1]; 3′-terminal base pair A · A (template base: 3′ primer base)): 1.7 % Min^−1
- Km ([1]; 3′-terminal base pair A · A): 27.3 µM
- fext, f (mismatched 3′terminus)/f (matched terminus) ([1]; 3′-terminal base pair A · A): 6.7 × 10^−7
- Vmax ([1]; 3′-terminal base pair A · G (template base: 3′ primer base)): 28.0 % Min^−1
- Km ([1]; 3′-terminal base pair A · G): 45.2 µM
- fext, f (mismatched 3′terminus)/f (matched terminus) ([1]; 3′-terminal base pair A · G): 2.1 × 10^−7
- Vmax ([1]; 3′-terminal base pair C · C (template base: 3′ primer base)): 0.2 % Min^−1
- Km ([1]; 3′-terminal base pair C · C): 39.9 µM
- fext, f (mismatched 3′terminus)/f (matched terminus) ([1]; 3′-terminal base pair C · C): 5.9 × 10^−8
- Km [1, 6]: 0.016 µM
- Vmax [1, 6]: 1477.0 % Min^−1
- Vmax ([1]; 3′-terminal base pair G · A (template base: 3′ primer base)): 1.6 % Min^−1
- Km ([1]; 3′-terminal base pair G · A): 32.8 µM
- fext, f (mismatched 3′terminus)/f (matched terminus) ([1]; 3′-terminal base pair G · A): 5.4 × 10^−7
- Vmax ([1]; 3′-terminal base pair G · G (template base: 3′ primer base)): 20.4 % Min^−1
- Km ([1]; 3′-terminal base pair G · G): 174 µM
- fext, f (mismatched 3′terminus)/f (matched terminus) ([1]; 3′-terminal base pair G · G): 1.3 × 10^−6
- abasic site bypass in primer extension [2]: further extension is largely abolished; also recorded: further extension was negligible
- CPD bypass in primer extension [3]: only able to insert a base opposite the 3′T of the dimer after prolonged reaction conditions
- PCR amplification with all four αS dNTPs [4]: failed to generate any amplification products

B1: 3A10: third round clone, abasic site bypass; SEQ ID NO: 86 (protein)
chain: MAMLPLFEPKGRVLLVDGHHLAYRTFFALKGLTTSRGEPVQVVYGFAKSLLKALKEDGYKAVFVVFDAKAPSFRHKAYEAYRAGRAPTPQDFPRQLALIKELVDLLGFTRLEVPGYEADDVLATLAKKAEKEGYEVRILTADRGLYQLVSDRVAVLHPEGHLITPEWLWEKYGLRPEQWVDFRALVGDPSDNLPGVKGIGEKTALKLLKEWGSLENLLKNLDRVKPENVREKIKAHLEDLRLSLELSRVRTDLPLEVDLAQGREPDREGLRAFLERLEFGSLLHEFGLLESPKALEEAPWPPPEGAFVGFVLSRKEPMWADLLALAAARGGRVHQAPEPYKALRDLKEARGLLAKDLSVLALREGLGLPPGDDPMLLAYLLDPSNTTPEGVARRYGGEWTEEAGERAALSERLFANLWGRLEGEERLLWLYREVERPLSAVLAHMETTGVRLDVAYLRALSLEVAEEIARLEAEVFRLAGRPFNLNSRDQLERVLFDELGLPAIGKTEKTGKRSTSAAVLEALREAHPIVEKILQYRELTKLKSTYIDPLPDLIHPRTGRLHTRFNQTATATGRLSSSDPNLQNIPVRTPLGQRIRRAFIAEEGWLLVVLDYSQMELRVLAHLSGDENLIRVFQEGKDIHTQTASWMFGVPPEAVDPLMRRAAKTVNFGVLYGMSAHRLSQELSIPYEEAVAFIERYFQSFPKVRAWIEKTLEEGRRRGYVETLFGRRRYVPDLNARMKSVRGAAERMAFNMPVQGTAADLMKLAMVKLFPRLREMGARMLLQVHDELLLEAPQARAEEVAALAKEAMEKAYPLAVPLEVEVGIGEDWLSAKE
modifications: Mutant Taq polymerase
- abasic site bypass in primer extension ([2]; listed as A10): clearly better at both abasic site and CPD extension and bypass than both wild type and M1; also recorded: clearly display better abasic site bypass than either wtTaq or M1
- CPD bypass in primer extension ([3]; listed as A10): clearly better at both abasic site and CPD extension and bypass than both wild type and M1; also recorded: superior elongation and bypass when compared to wild type

B2: 3D1: third round clone, four mismatch extension; SEQ ID NO: 98 (protein)
chain: MAMLPLFEPKGRVLLVDGHHLAYRTFFALKGPTTSRGEPVQVVYGFAKSLLKALKEDGYKAVFVVFDAKAPSFRHKAYEAYRAGRAPTPEDFPRQLALIKELVDLLGFTRLEVPGYEADDVLATLAKKAEKEGYEVRILTADRGLYQLVSDRVAVLHPEGHLITPEWLWEKYGLRPEQWVDFRALVGDPSDNLPGVKGIGEKTALKLLKEWGSLENLLKNLDRVKPENVREKIKAHLEDLRLSLELSRVRTDLPLEVDLAQRREPDREGLRAFLERLEFGSLFHEFGLLESPKALEEAPWPPPEGAFVGFVLSRKEPMWADLLALAAARGGRVHRAPEPYKALRDLKEARGLLAKDLSVLALREGLGLPPGDDPMLLAYLLDPSNTTPEGVARRYGGEWTEEAGERAALSERLFANLWGRLEGEERLLWLYREVERPLSAVLAHMEATGVRLDVAYLRALSLEVAEEIARLEAEVFRLAGHPFNLNSRDQLEMVLFDELRLPALGKTQKTGKRSTSAAVLEALREAHPIVEKILQYRELTKLKSTYIDPLSDLIHPRTGRLHTRFNQTATATGRLSSSDPNLQNIPVRTPLGQRIRRAFIAEEGWLLVVLDYSQIELRVLAHLSGDENLIRVFQEGRDIHTETASWMFGVPREAVDPLMRRAAKTINFGVLYGMSAHRLSQELAIPYEEAQAFIERYFQSFPKVRAWIEKTLEEGRRRGYVETLFGRRRYVPDLEARVKSVREAAERMAFNMPVQGTAADLMKLAMVKLFPRLGETGARMLLQVHDELVLEAPKERAEAVARLAKEAMEGVYPLAVPLEVEVGIGEDWLSAKG
modifications: Mutant Taq polymerase
- abasic site bypass in primer extension [2]: clearly display better abasic site bypass than either wtTaq or M1
